Molecular target: soluble recombinant FcγRIIIB (sFcγRIIIB) (UniProt O75015)
Assay: SPR, comparison of SAP and CRP affinities

soluble recombinant FcγRIIIB (sFcγRIIIB), sequence (O75015 17-200): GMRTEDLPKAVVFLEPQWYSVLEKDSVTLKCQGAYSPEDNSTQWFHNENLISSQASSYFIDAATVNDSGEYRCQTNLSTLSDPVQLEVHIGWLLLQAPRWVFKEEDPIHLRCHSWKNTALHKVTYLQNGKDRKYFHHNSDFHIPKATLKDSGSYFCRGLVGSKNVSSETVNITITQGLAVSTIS

fold affinity of SAP over CRP for the same receptor: 1000 fold
Substance: serum amyloid P (SAP) (from UniProt P02743 20-223) (ligand; other documents disagree on this pair)

From US20090202520A1
